PMC9120130
pKd: −log10 of the molar value.

Biological target: Human ACE2-hIgG1Fc (human) (UniProt Q9BYF1)
Test: SPR

Sequence of Human ACE2-hIgG1Fc (human) (Q9BYF1 18-740): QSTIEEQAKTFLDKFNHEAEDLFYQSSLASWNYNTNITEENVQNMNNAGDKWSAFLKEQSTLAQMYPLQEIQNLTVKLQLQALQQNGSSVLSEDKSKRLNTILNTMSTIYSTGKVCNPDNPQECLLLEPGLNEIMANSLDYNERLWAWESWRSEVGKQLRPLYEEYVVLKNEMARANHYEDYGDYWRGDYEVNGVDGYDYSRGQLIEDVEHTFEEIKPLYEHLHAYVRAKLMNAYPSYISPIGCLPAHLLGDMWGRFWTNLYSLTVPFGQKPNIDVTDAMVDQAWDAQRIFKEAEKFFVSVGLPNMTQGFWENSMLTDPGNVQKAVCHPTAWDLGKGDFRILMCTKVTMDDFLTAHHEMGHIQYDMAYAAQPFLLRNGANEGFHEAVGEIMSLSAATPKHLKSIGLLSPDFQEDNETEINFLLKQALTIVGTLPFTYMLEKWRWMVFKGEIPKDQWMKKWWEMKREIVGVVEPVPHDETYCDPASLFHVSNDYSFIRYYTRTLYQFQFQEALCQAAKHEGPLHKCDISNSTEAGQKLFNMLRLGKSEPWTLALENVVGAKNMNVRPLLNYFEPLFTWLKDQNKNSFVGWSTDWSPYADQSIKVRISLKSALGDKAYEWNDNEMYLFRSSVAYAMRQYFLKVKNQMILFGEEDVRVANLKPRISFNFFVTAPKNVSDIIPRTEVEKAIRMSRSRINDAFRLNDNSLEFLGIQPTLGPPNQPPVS

With Wuhan RBD the pKd was 8.14 and the koff was 0.0051 s⁻¹.
